From PMC6899631, “An essential pentatricopeptide repeat protein in the apicomplexan remnant chloroplast”

T1: His6-TRX-PfPPR1 (Plasmodium falciparum, UniProt Q8IM30 121-608)
T1 sequence: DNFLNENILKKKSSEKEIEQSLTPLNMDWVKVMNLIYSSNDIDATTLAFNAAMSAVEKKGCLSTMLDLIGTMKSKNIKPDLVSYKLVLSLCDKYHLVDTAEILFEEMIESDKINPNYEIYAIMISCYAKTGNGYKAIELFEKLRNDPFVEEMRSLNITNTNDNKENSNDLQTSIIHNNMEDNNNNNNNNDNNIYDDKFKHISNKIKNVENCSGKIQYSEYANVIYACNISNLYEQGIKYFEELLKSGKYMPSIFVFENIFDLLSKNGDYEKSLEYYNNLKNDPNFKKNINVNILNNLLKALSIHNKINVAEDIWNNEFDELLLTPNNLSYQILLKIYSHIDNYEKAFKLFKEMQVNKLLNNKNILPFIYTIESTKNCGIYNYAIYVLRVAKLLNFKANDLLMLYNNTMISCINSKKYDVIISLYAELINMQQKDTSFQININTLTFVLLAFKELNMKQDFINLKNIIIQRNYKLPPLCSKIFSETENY

B1: RNA oligo 1 (ssRNA)
RNA: ACGACAUUAUAUGGUCGGA
B2: RNA oligo 3 (ssRNA)
RNA: ACGACAUGACGAGGUCGGA
B3: RNA oligo 2 (ssRNA)
RNA: ACGACAUUAUAAGGUCGGA

Columns and labels:
[1] = target: PfPPR1 minus the His6-TRX tag (tag cleaved by HRV 3C protease) (Plasmodium falciparum); assay: AUC; sedimentation velocity, PfPPR1 minus His6-TRX tag at 1.8 mg/mL, continuous c(s) distribution model
[2] = target: His6-TRX-PfPPR1 (Plasmodium falciparum apicoplast pentatricopeptide repeat protein PPR1, minus the bipartite leader, with N-terminal TRX-His6 tag) (Plasmodium falciparum); assay: SEC; S200 10/300 analytical gel filtration column in 50 mM Tris pH 8.0, 200 mM NaCl, 5 mM DTT; sample in 10 mM HEPES pH 7.5, 20 mM KCl, 1 mM MgCl2, 1 mM DTT, 15 min at room temperature; control without RNA (with RNA 4 or RNA 5 the dimer eluted earlier, with RNA bound)
His6-TRX-PfPPR1 = target: T1, His6-TRX-PfPPR1; assay: pull-down; Pull-down: 10 mM HEPES pH 7.5, 20 mM KCl, 1 mM MgCl2, 1 mM DTT, room temperature 15 min; 400 nM biotinylated RNA, 800 nM protein (Results state 1:1 molar). Gel; settings: protein: recombinant; tags: N-terminal TRX-His6 (HRV 3C cleavable); chain copies: 2; label: 3' biotin (pull-down)

Row | Molecule | binding result (His6-TRX-PfPPR1) | other results
1 | PfPPR1 minus the His6-TRX tag (tag cleaved by HRV 3C protease) (natural protein) | – | stoichiometry N [1]: 2
2 | His6-TRX-PfPPR1 (Plasmodium falciparum apicoplast pentatricopeptide repeat protein PPR1, minus the bipartite leader, with N-terminal TRX-His6 tag) (natural protein) | – | stoichiometry N [2]: 2
3 | B1 | binds | –
4 | B2 | no binding | –
5 | B3 | binds | –
